Two molecules from paper PMC6831305, “Secreted protein acidic and rich in cysteine mediates active targeting of human serum albumin in U87MG xenograft mouse models” (Theranostics, 2019) can be followed below.

The target in test [1] is T1, FNR648-labeled human serum albumin (human, UniProt P02768 25-609, FNR648 fluorescence dye conjugated (site not stated)).
T1 construct: human serum albumin (HSA), human; The pre-clearing step of the IP names plain 'HSA'; the detected species is FNR648-HSA; also called FNR648-HSA; HSA
T1 sequence (P02768 25-609): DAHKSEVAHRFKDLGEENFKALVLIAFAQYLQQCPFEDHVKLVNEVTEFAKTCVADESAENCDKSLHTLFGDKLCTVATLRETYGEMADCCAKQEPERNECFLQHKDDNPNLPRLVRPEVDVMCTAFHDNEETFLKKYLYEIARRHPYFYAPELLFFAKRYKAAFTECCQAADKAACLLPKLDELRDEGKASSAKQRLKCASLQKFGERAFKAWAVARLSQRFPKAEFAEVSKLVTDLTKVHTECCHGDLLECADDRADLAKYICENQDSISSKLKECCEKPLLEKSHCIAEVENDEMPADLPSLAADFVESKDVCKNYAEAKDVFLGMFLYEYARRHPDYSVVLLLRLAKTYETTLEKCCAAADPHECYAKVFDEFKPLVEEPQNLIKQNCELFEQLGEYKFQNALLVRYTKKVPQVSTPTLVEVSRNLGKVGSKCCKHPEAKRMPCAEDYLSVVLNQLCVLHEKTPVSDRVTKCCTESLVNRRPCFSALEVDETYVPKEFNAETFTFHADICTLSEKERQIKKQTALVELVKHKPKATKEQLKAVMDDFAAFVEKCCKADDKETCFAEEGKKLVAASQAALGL
Kind of test: co-IP; SPARC and FNR648-HSA incubated 2 h at 4 °C after pre-clearing (normal rabbit serum, protein A/G PLUS-Agarose); precipitated with rabbit anti-SPARC antibody and protein A/G PLUS-Agarose; 8% SDS-PAGE, FNR648 fluorescence in the gel read by IVIS. Particulars: both partners purified.

Test [2] addresses T1, FNR648-labeled human serum albumin. Kind of test: FRET or BRET; Cy3-SPARC (donor) and FNR648-HSA (acceptor) added to U87MG cells; confocal imaging, excitation 514 nm, emission 540-600 nm (Cy3-SPARC) and 640-750 nm (FNR648-HSA); line ROI analysis. Particulars: both partners purified. For orientation: BRET reads energy transfer from a luciferase to a nearby fluorophore.

B1: recombinant human SPARC (secreted protein acidic and rich in cysteine) (natural protein, UniProt P09486 18-303, looked up)
chain: APQQEALPDETEVVEETVAEVTEVSVGANPVQVEVGEFDDGAEETEEEVVAENPCQNHHCKHGKVCELDENNTPMCVCQDPTSCPAPIGEFEKVCSNDNKTFDSSCHFFATKCTLEGTKKGHKLHLDYIGPCKYIPPCLDSELTEFPLRMRDWLKNVLVTLYERDEDNNLLTEKQKLRVKKIHENEKRLEAGDHPVELLARDFEKNYNMYIFPVHWQFGQLDQHPIDGYLSHTELAPLRAPLIPMEHCTTRFFETCDLDNDKYIALDEWAGCFGIKQKDIDKDLVI
notes: secreted protein acidic and rich in cysteine (SPARC), human, recombinant, cell-derived; also called exogenous SPARC; source: bought: R&D system (cell-derived, 941-SP)
Turning to B1, in test [1], the binding result is reported as “binds”.

B2: Cy3-labeled recombinant human SPARC (natural protein, UniProt P09486 18-303, looked up)
chain: APQQEALPDETEVVEETVAEVTEVSVGANPVQVEVGEFDDGAEETEEEVVAENPCQNHHCKHGKVCELDENNTPMCVCQDPTSCPAPIGEFEKVCSNDNKTFDSSCHFFATKCTLEGTKKGHKLHLDYIGPCKYIPPCLDSELTEFPLRMRDWLKNVLVTLYERDEDNNLLTEKQKLRVKKIHENEKRLEAGDHPVELLARDFEKNYNMYIFPVHWQFGQLDQHPIDGYLSHTELAPLRAPLIPMEHCTTRFFETCDLDNDKYIALDEWAGCFGIKQKDIDKDLVI
modifications: ADIBO-NHS conjugated, then Cy3-azide by click reaction (sites not given)
notes: secreted protein acidic and rich in cysteine (SPARC), human, recombinant, cell-derived; Same bought protein as m2, with the Cy3 label; also called Cy3-SPARC; fluorescence-labeled SPARC; source: bought: R&D system (cell-derived, 941-SP), then labelled via ADIBO-NHS and Cy3-azide click reaction
Take B2: the binding result in test [2] is listed as “binds”.
